Among the data in PMC7614924 are percent of HEK293 P301S tau-Venus cells with aggregates (Venus fluorescence) 24 h after 100 nM recombinant tau fibrils with lipofectamine values, retold here.

The target of this assay is 0N4R isoform of human tau bearing P301S with a C-terminal Venus tag (Sarkosyl-insoluble filaments from seeded HEK293 cells) (human).

For the substance “Recombinant N-terminally 6xHis-tagged human P301S 0N4R tau (heparin-assembled fibrils) (natural protein)”, the percent of HEK293 P301S tau-Venus cells with aggregates (Venus fluorescence) 24 h after 100 nM recombinant tau fibrils with lipofectamine stood at 20%.
